Results from IntAct's records for PubMed 12529400.

B1: Homeodomain-interacting protein kinase 1 (Mus musculus), O88904 (parent)
chain: MASQLQVFSPPSVSSSAFCSAKKLKIEPSGWDVSGQSSNDKYYTHSKTLPATQGQASSSHQVANFNLPAYDQGLLLPAPAVEHIVVTAADSSGSAATATFQSSQTLTHRSNVSLLEPYQKCGLKRKSEEVESNGSVQIIEEHPPLMLQNRTVVGAAATTTTVTTKSSSSSGEGDYQLVQHEILCSMTNSYEVLEFLGRGTFGQVAKCWKRSTKEIVAIKILKNHPSYARQGQIEVSILSRLSSENADEYNFVRSYECFQHKNHTCLVFEMLEQNLYDFLKQNKFSPLPLKYIRPILQQVATALMKLKSLGLIHADLKPENIMLVDPVRQPYRVKVIDFGSASHVSKAVCSTYLQSRYYRAPEIILGLPFCEAIDMWSLGCVIAELFLGWPLYPGASEYDQIRYISQTQGLPAEYLLSAGTKTTRFFNRDPNLGYPLWRLKTPEEHELETGIKSKEARKYIFNCLDDMAQVNMSTDLEGTDMLAEKADRREYIDLLKKMLTIDADKRITPLKTLNHQFVTMSHLLDFPHSSHVKSCFQNMEICKRRVHMYDTVSQIKSPFTTHVAPNTSTNLTMSFSNQLNTVHNQASVLASSSTAAAATLSLANSDVSLLNYQSALYPSSAAPVPGVAQQGVSLQPGTTQICTQTDPFQQTFIVCPPAFQTGLQATTKHSGFPVRMDNAVPIVPQAPAAQPLQIQSGVLTQGSCTPLMVATLHPQVATITPQYAVPFTLSCAAGRPALVEQTAAVLQAWPGGTQQILLPSAWQQLPGVALHNSVQPAAVIPEAMGSSQQLADWRNAHSHGNQYSTIMQQPSLLTNHVTLATAQPLNVGVAHVVRQQQSSSLPSKKNKQSAPVSSKSSLEVLPSQVYSLVGSSPLRTTSSYNSLVPVQDQHQPIIIPDTPSPPVSVITIRSDTDEEEDNKYKPNSSSLKARSNVISYVTVNDSPDSDSSLSSPHPTDTLSALRGNSGTLLEGPGRPAADGIGTRTIIVPPLKTQLGDCTVATQASGLLSSKTKPVASVSGQSSGCCITPTGYRAQRGGASAVQPLNLSQNQQSSSASTSQERSSNPAPRRQQAFVAPLSQAPYAFQHGSPLHSTGHPHLAPAPAHLPSQPHLYTYAAPTSAAALGSTSSIAHLFSPQGSSRHAAAYTTHPSTLVHQVPVSVGPSLLTSASVAPAQYQHQFATQSYIGSSRGSTIYTGYPLSPTKISQYSYL

Variants of: B1
Conditions: with daxx_human DAXX

| Variant | effect of a mutation on the interaction |
| --- | --- |
| K219A | decreasing interaction |

Variants of: B1
Conditions: with daxx_mouse Daxx

| Variant | effect of a mutation on the interaction |
| --- | --- |
| K219A | decreasing interaction |
